T1: FcγRIIa type H extracellular domain with C-terminal His tag (human, UniProt P12318 34-217)
T1 construct: extracellular domain; also called FcgRIIaH; FcγRIIa H
T1 sequence (looked up): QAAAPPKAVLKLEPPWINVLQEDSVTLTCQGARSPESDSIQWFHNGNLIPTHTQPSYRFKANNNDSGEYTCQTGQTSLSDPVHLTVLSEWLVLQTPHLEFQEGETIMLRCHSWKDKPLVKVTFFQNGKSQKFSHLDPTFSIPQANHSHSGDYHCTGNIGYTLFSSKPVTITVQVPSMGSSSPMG

T2: FcγRIIb extracellular domain with C-terminal His tag (human, UniProt P31994 43-217)
T2 construct: extracellular domain; also called FcgRIIb
T2 sequence (looked up): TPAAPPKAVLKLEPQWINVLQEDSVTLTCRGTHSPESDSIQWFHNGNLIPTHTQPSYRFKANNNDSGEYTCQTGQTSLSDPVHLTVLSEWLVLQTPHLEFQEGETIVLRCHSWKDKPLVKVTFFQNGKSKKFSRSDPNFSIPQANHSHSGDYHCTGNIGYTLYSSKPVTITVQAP


Columns and labels:
Experiment in all cases: SPR, captured antibody, FcgR analyte
[1] = target: T3, FcγRIa extracellular domain with C-terminal His tag (human, UniProt P12314 16-292)
T3 construct: also called FcgRIa
Description: (§1) Relative binding activities were calculated for the results of analyzing interactions with the respective FcγRs according to the following method.

[2] = target: T1, FcγRIIa type H extracellular domain …
Description: as §1

[3] = target: T2, FcγRIIb extracellular domain with …
Description: as §1

T3 sequence (P12314 16-292): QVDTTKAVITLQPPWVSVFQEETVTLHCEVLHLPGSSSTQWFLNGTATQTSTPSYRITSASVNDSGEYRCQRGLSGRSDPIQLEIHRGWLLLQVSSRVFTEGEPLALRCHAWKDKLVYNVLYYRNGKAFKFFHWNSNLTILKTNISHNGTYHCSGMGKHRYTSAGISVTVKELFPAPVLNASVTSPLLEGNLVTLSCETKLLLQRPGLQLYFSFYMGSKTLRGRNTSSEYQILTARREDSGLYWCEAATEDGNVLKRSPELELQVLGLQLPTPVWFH

Row | Binder | relative binding activity [1] | relative binding activity [2] | relative binding activity [3]
1 | IL6R-BP084/IL6R-L (antibody, human IgG1, kappa) heavy: QVQLQESGPGLVKPSETLSLTCAVSGHSISHDHAWSWVRQPPGEGLEWIGFISYSGITNYNPSLQGRVTISRDNSKNTLYLQMNSLRAEDTAVYYCARSLARTTAMDYWGEGTLVTVSSASTKGPSVFPLAPSSKSTSGGTAALGCLVKDYFPEPVTVSWNSGALTSGVHTFPAVLQSSGLYSLSSVVTVPSSSLGTQTYICNVNHKPSNTKVDKKVEPKSCDKTHTCPPCPAPELLGGDSVFLFPPKPKDTLMISRTPEVTCVVVDVSHEDPEVKFNWYVDGVEVHNAKTKPREEQYNSTYRVVSVLTVLHQDWLNGKEYKCKMSNKALPKPIEKTISKAKGQPREPQVYTLPPSRDELTKNQVSLTCLVKGFYPSDIAVEWESNGQPENNYKTTPPVLDSDGSFFLYSKLTVDKSRWQQGNVFSCSVMHEALHNHYTQESLSLSP light: not shown | 109 relative (IL6R-BF648/IL6R-L = 100) | 162 relative (IL6R-BF648/IL6R-L = 100) | 141 relative (IL6R-BF648/IL6R-L = 100)
2 | IL6R-BP146/IL6R-L (antibody, human IgG1, kappa) heavy: QVQLQESGPGLVKPSETLSLTCAVSGHSISHDHAWSWVRQPPGEGLEWIGFISYSGITNYNPSLQGRVTISRDNSKNTLYLQMNSLRAEDTAVYYCARSLARTTAMDYWGEGTLVTVSSASTKGPSVFPLAPSSKSTSGGTAALGCLVKDYFPEPVTVSWNSGALTSGVHTFPAVLQSSGLYSLSSVVTVPSSSLGTQTYICNVNHKPSNTKVDKKVEPKSCDKTHTCPPCPAPEYLGDDSVFLFPPKPKDTLMISRTPEVTCVVVDVSHEDPEVKFNWYVDGVEVHNAKTKPREEQYNSTYRVVSVLTVLHQDWLNGKEYKCKVSNAALPAPIEKTISKAKGQPREPQVYTLPPSRDELTKNQVSLTCLVKGFYPSDIAVEWESNGQPENNYKTTPPVLDSDGSFFLYSKLTVDKSRWQQGNVFSCSVMHEALHNHYTQESLSLSP light: not shown | – | 203 relative (IL6R-BF648/IL6R-L = 100) | 156 relative (IL6R-BF648/IL6R-L = 100)
3 | IL6R-BP145/IL6R-L (antibody, human IgG1, kappa) heavy: QVQLQESGPGLVKPSETLSLTCAVSGHSISHDHAWSWVRQPPGEGLEWIGFISYSGITNYNPSLQGRVTISRDNSKNTLYLQMNSLRAEDTAVYYCARSLARTTAMDYWGEGTLVTVSSASTKGPSVFPLAPSSKSTSGGTAALGCLVKDYFPEPVTVSWNSGALTSGVHTFPAVLQSSGLYSLSSVVTVPSSSLGTQTYICNVNHKPSNTKVDKKVEPKSCDKTHTCPPCPAPEYLGDDSVFLFPPKPKDTLMISRTPEVTCVVVDVSHEDPEVKFNWYVDGVEVHNAKTKPREEQYNSTYRVVSVLTVLHQDWLNGKEYKCKVSNKALPAPIEKTISKAKGQPREPQVYTLPPSRDELTKNQVSLTCLVKGFYPSDIAVEWESNGQPENNYKTTPPVLDSDGSFFLYSKLTVDKSRWQQGNVFSCSVMHEALHNHYTQESLSLSP light: not shown | 41 relative (IL6R-BF648/IL6R-L = 100) | 224 relative (IL6R-BF648/IL6R-L = 100) | 152 relative (IL6R-BF648/IL6R-L = 100)
4 | IL6R-BP087/IL6R-L (antibody, human IgG1, kappa) heavy: QVQLQESGPGLVKPSETLSLTCAVSGHSISHDHAWSWVRQPPGEGLEWIGFISYSGITNYNPSLQGRVTISRDNSKNTLYLQMNSLRAEDTAVYYCARSLARTTAMDYWGEGTLVTVSSASTKGPSVFPLAPSSKSTSGGTAALGCLVKDYFPEPVTVSWNSGALTSGVHTFPAVLQSSGLYSLSSVVTVPSSSLGTQTYICNVNHKPSNTKVDKKVEPKSCDKTHTCPPCPAPEYLGGDSVFLFPPKPKDTLMISRTPEVTCVVVDVSHEDPEVKFNWYVDGVEVHNAKTKPREEQYNSTYRVVSVLTVLHQDWLNGKEYKCKVSNKALPKPIEKTISKAKGQPREPQVYTLPPSRDELTKNQVSLTCLVKGFYPSDIAVEWESNGQPENNYKTTPPVLDSDGSFFLYSKLTVDKSRWQQGNVFSCSVMHEALHNHYTQESLSLSP light: not shown | 33 relative (IL6R-BF648/IL6R-L = 100) | 179 relative (IL6R-BF648/IL6R-L = 100) | 137 relative (IL6R-BF648/IL6R-L = 100)
5 | IL6R-BP088/IL6R-L (antibody, human IgG1, kappa) heavy: QVQLQESGPGLVKPSETLSLTCAVSGHSISHDHAWSWVRQPPGEGLEWIGFISYSGITNYNPSLQGRVTISRDNSKNTLYLQMNSLRAEDTAVYYCARSLARTTAMDYWGEGTLVTVSSASTKGPSVFPLAPSSKSTSGGTAALGCLVKDYFPEPVTVSWNSGALTSGVHTFPAVLQSSGLYSLSSVVTVPSSSLGTQTYICNVNHKPSNTKVDKKVEPKSCDKTHTCPPCPAPELLGDDSVFLFPPKPKDTLMISRTPEVTCVVVDVSHEDPEVKFNWYVDGVEVHNAKTKPREEQYNSTYRVVSVLTVLHQDWLNGKEYKCKVSNAALPKPIEKTISKAKGQPREPQVYTLPPSRDELTKNQVSLTCLVKGFYPSDIAVEWESNGQPENNYKTTPPVLDSDGSFFLYSKLTVDKSRWQQGNVFSCSVMHEALHNHYTQESLSLSP light: not shown | 25 relative (IL6R-BF648/IL6R-L = 100) | 166 relative (IL6R-BF648/IL6R-L = 100) | 161 relative (IL6R-BF648/IL6R-L = 100)
6 | IL6R-BP151/IL6R-L (antibody, human IgG1, kappa) heavy: QVQLQESGPGLVKPSETLSLTCAVSGHSISHDHAWSWVRQPPGEGLEWIGFISYSGITNYNPSLQGRVTISRDNSKNTLYLQMNSLRAEDTAVYYCARSLARTTAMDYWGEGTLVTVSSASTKGPSVFPLAPSSKSTSGGTAALGCLVKDYFPEPVTVSWNSGALTSGVHTFPAVLQSSGLYSLSSVVTVPSSSLGTQTYICNVNHKPSNTKVDKKVEPKSCDKTHTCPPCPAPDYLGDDSVFLFPPKPKDTLMISRTPEVTCVVVDVSHEDPEVKFNWYVDGVEVHNAKTKPREEQYNSTYRVVSVLTVLHQDWLNGKEYKCKVSNAALPRPIEKTISKAKGQPREPQVYTLPPSRDELTKNQVSLTCLVKGFYPSDIAVEWESNGQPENNYKTTPPVLDSDGSFFLYSKLTVDKSRWQQGNVFSCSVMHEALHNHYTQESLSLSP light: not shown | 39 relative (IL6R-BF648/IL6R-L = 100) | 621 relative (IL6R-BF648/IL6R-L = 100) | –
7 | IL6R-BP195/IL6R-L (antibody, human IgG1, kappa) heavy: QVQLQESGPGLVKPSETLSLTCAVSGHSISHDHAWSWVRQPPGEGLEWIGFISYSGITNYNPSLQGRVTISRDNSKNTLYLQMNSLRAEDTAVYYCARSLARTTAMDYWGEGTLVTVSSASTKGPSVFPLAPSSKSTSGGTAALGCLVKDYFPEPVTVSWNSGALTSGVHTFPAVLQSSGLYSLSSVVTVPSSSLGTQTYICNVNHKPSNTKVDKKVEPKSCDKTHTCPPCPAPDYLGDDSVFLFPPKPKDTLMISRTPEVTCVVVDVSDEDGEVKFNWYVDGVEVHNAKTKPREEQDNSTYRVVSVLTVLHQDWLNGKEYKCKVSNAALPKPIEKTISKAKGQPREPQVYTLPPSRDELTKNQVSLTCLVKGFYPSDIAVEWESNGQPENNYKTTPPVLDSDGSFFLYSKLTVDKSRWQQGNVFSCSVMHEALHNHYTQESLSLSP light: not shown | 68 relative (IL6R-BF648/IL6R-L = 100) | 344 relative (IL6R-BF648/IL6R-L = 100) | –
8 | IL6R-BP089/IL6R-L (antibody, human IgG1, kappa) heavy: QVQLQESGPGLVKPSETLSLTCAVSGHSISHDHAWSWVRQPPGEGLEWIGFISYSGITNYNPSLQGRVTISRDNSKNTLYLQMNSLRAEDTAVYYCARSLARTTAMDYWGEGTLVTVSSASTKGPSVFPLAPSSKSTSGGTAALGCLVKDYFPEPVTVSWNSGALTSGVHTFPAVLQSSGLYSLSSVVTVPSSSLGTQTYICNVNHKPSNTKVDKKVEPKSCDKTHTCPPCPAPEYLGGDSVFLFPPKPKDTLMISRTPEVTCVVVDVSHEDPEVKFNWYVDGVEVHNAKTKPREEQYNSTYRVVSVLTVLHQDWLNGKEYKCKVSNAALPKPIEKTISKAKGQPREPQVYTLPPSRDELTKNQVSLTCLVKGFYPSDIAVEWESNGQPENNYKTTPPVLDSDGSFFLYSKLTVDKSRWQQGNVFSCSVMHEALHNHYTQESLSLSP light: not shown | 43 relative (IL6R-BF648/IL6R-L = 100) | 186 relative (IL6R-BF648/IL6R-L = 100) | 147 relative (IL6R-BF648/IL6R-L = 100)
9 | IL6R-BP190/IL6R-L (antibody, human IgG1, kappa) heavy: QVQLQESGPGLVKPSETLSLTCAVSGHSISHDHAWSWVRQPPGEGLEWIGFISYSGITNYNPSLQGRVTISRDNSKNTLYLQMNSLRAEDTAVYYCARSLARTTAMDYWGEGTLVTVSSASTKGPSVFPLAPSSKSTSGGTAALGCLVKDYFPEPVTVSWNSGALTSGVHTFPAVLQSSGLYSLSSVVTVPSSSLGTQTYICNVNHKPSNTKVDKKVEPKSCDKTHTCPPCPAPELLGDDSVFLFPPKPKDTLMISRTPEVTCVVVDVSDEDGEVKFNWYVDGVEVHNAKTKPREEQYNSTYRVVSVLTVLHQDWLNGKEYKCKVSNKALPKPIEKTISKAKGQPREPQVYTLPPSRDELTKNQVSLTCLVKGFYPSDIAVEWESNGQPENNYKTTPPVLDSDGSFFLYSKLTVDKSRWQQGNVFSCSVMHEALHNHYTQESLSLSP light: not shown | 50 relative (IL6R-BF648/IL6R-L = 100) | 224 relative (IL6R-BF648/IL6R-L = 100) | –
10 | IL6R-BP147/IL6R-L (antibody, human IgG1, kappa) heavy: QVQLQESGPGLVKPSETLSLTCAVSGHSISHDHAWSWVRQPPGEGLEWIGFISYSGITNYNPSLQGRVTISRDNSKNTLYLQMNSLRAEDTAVYYCARSLARTTAMDYWGEGTLVTVSSASTKGPSVFPLAPSSKSTSGGTAALGCLVKDYFPEPVTVSWNSGALTSGVHTFPAVLQSSGLYSLSSVVTVPSSSLGTQTYICNVNHKPSNTKVDKKVEPKSCDKTHTCPPCPAPEYLGDDSVFLFPPKPKDTLMISRTPEVTCVVVDVSHEDPEVKFNWYVDGVEVHNAKTKPREEQYNSTYRVVSVLTVLHQDWLNGKEYKCKVSNAALPKPIEKTISKAKGQPREPQVYTLPPSRDELTKNQVSLTCLVKGFYPSDIAVEWESNGQPENNYKTTPPVLDSDGSFFLYSKLTVDKSRWQQGNVFSCSVMHEALHNHYTQESLSLSP light: not shown | 24 relative (IL6R-BF648/IL6R-L = 100) | 582 relative (IL6R-BF648/IL6R-L = 100) | 177 relative (IL6R-BF648/IL6R-L = 100)
11 | IL6R-BP178/IL6R-L (antibody, human IgG1, kappa) heavy: QVQLQESGPGLVKPSETLSLTCAVSGHSISHDHAWSWVRQPPGEGLEWIGFISYSGITNYNPSLQGRVTISRDNSKNTLYLQMNSLRAEDTAVYYCARSLARTTAMDYWGEGTLVTVSSASTKGPSVFPLAPSSKSTSGGTAALGCLVKDYFPEPVTVSWNSGALTSGVHTFPAVLQSSGLYSLSSVVTVPSSSLGTQTYICNVNHKPSNTKVDKKVEPKSCDKTHTCPPCPAPDLLGDDSVFLFPPKPKDTLMISRTPEVTCVVVDVSHEDGEVKFNWYVDGVEVHNAKTKPREEQYNSTYRVVSVLTVLHQDWLNGKEYKCKVSNKALPKPIEKTISKAKGQPREPQVYTLPPSRDELTKNQVSLTCLVKGFYPSDIAVEWESNGQPENNYKTTPPVLDSDGSFFLYSKLTVDKSRWQQGNVFSCSVMHEALHNHYTQESLSLSP light: not shown | – | 259 relative (IL6R-BF648/IL6R-L = 100) | 179 relative (IL6R-BF648/IL6R-L = 100)
